The target in experiment [1] is anti-HER2 memAb (trastuzumab-based, meditope-enabled anti-HER2 antibody). Nature of the experiment: SPR. (In general: SPR reads the build-up and loss of mass on a sensor chip optically.)
The target in a further experiment is Ile83Glu anti-HER2 memAb. Kind of experiment: SPR.

Positions of bridges follow the written chain, without caps; N, C: chain ends. No end group written: not given here.

Sequence of Ile83Glu anti-HER2 memAb (VH, as listed by the source, chain 1 of 2): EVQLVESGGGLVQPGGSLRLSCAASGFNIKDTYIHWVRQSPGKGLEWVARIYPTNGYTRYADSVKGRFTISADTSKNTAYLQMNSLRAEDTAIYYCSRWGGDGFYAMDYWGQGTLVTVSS
Sequence of Ile83Glu anti-HER2 memAb (VL, as listed by the source, chain 2 of 2): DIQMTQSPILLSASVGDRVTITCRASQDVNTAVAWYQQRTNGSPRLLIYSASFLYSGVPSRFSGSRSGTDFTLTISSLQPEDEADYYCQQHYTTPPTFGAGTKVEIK
Sequence of anti-HER2 memAb (trastuzumab-based, meditope-enabled anti-HER2 antibody) (VH, as listed by the source, chain 1 of 2): as the sequence (VH, as listed by the source, chain 1 of 2) above
Sequence of anti-HER2 memAb (trastuzumab-based, meditope-enabled anti-HER2 antibody) (VL, as listed by the source, chain 2 of 2): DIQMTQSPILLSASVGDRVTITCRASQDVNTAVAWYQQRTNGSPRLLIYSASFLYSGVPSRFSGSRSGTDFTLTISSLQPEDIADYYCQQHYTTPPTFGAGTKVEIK

B1: 5-diphenylalanine long meditope ((Ac)CQFDA(Ph)2STRRLRCGGSK) (peptide)
peptide: Ac-CQFDASTRRLRCGGSK
modifications: disulfide 1-12 (inferred); not fully specified (residue 5); printed as (Ac)CQFDA(Ph)2STRRLRCGGSK
Broadly, the Kd is the constant that tells how readily two partners part at equilibrium. Higher therefore signals lower affinity. Regarding B1, the Kd in experiment [1] is 39 nM.
In the case of CQFDLSTRRLKC (disulfide 1-12 (inferred)) [original meditope (CQFDLSTRRLKC)], the dissociation constant (Kd) with Ile83Glu anti-HER2 memAb stood at 20 nM.

Values taken from PMC5910394 (2018).
